Drawing on patent CN113563464A (NAT CENTER FOR AIDS/STD CONTROL AND PREVENTION CHINA CDC, dated 2021), this text covers Kd for three molecules.

To fix the notation:
B1: SW-C11 (antibody, V domains shown)
VH: EVQLVESGGGLIQPGGSLRLSCAASEFIVSRNYMSWVRQAPGTGLEWVSVIYPGGSTFYADSVKGRFTISRDNSKNTLYLQMDSLRVEDTAVYYCARDYGDFYFDYWGQGTLVTVSS
VL: EIVMTQSPVSLSVSPGERATLSCRASQGVASNLAWYQQKAGQAPRLLIYGASTRATGIPARFSGSGSGTEFTLTISTLQSEDSAVYYCQQYNDRPRTFGQGTKLEIKR
B2: WJQ-G10 (antibody, V domains shown)
VH: EVQLVESGGGLVQPGESLRLSCAASGLTVSSNYMSWVRQAPGKGLEWVSVIYAGGSTFYADSVKGRFTISRDNSKNTLYLQMNSLRAEDMAIYYCARDLSYYGMDVWGQGTTVTVSS
VL: DIQLTQFPFSLSASVGDRVTITCRASQGISTYLAWYQQKPGRAPKLLIYAASTLQSGVPSRFSGSGSGTEFTLTISSLQPEDFATYYCQLLNSYPVHFGQGTKLEIKR
B3: WJQ-C11 (antibody, V domains shown)
VH: EVQLVESGGGLVQPGGSLRLSCAASGFAFSTYEMNWVRQAPGKGLEWVSYIHNSGNPVYYADSVKGRFTISRDNAENSLYLQMNSLRAEDTAIYYCARALRYSTSWYDYWGQGTLVTVSS
VL: EIVLTQSPVSLSLSPGERATLSCRASQSVSSYLAWYQQKPGQAPRLFIYDASKRATGIPARFSGSGSGTDFTLTISSLEPEDFAVYYCQQRSNWPRTFGQGTKVEIKR

This experiment addresses SARS-Cov-2的生物素化RBD (RBD蛋白, NC_045512, 6×His-Avi标签) (SARS-CoV-2, UniProt P0DTC2 319-541).
Broadly, the Kd is the equilibrium constant for the complex coming apart. High values mean a looser complex, low ones a tighter complex. In turn, B1 registered a Kd of less than 0.001 nM.

In the case of B2, the Kd came to 1.37 nM.

B3 displayed a Kd of 5.29 nM.
